Substitutions are numbered along the chain they refer to.
B1: bdSENP1^MutJ (protein)
chain: PFVPLTDEDEDNVRHALGGRKESETLSVHEASSIVITREILQCLNDKEWLNDEVINLYLELLKERELREPNKFLKCHFFNTFFYKKLINGGYDYKSVRSWTTTRKLGYNLIDCDKIFVPIHKDVHWCLAVINIKEKKFQYLDSLGYMDMKALRILAKYLVDEVKDKSGKQIDVHAWKQEGVQNLPLQENGWDCGMFMLKYIDFYSRDMELVFGQKHMSYFRRRTAKEILDLKAG
B2: bdSENP1^MutK (protein)
chain: B1 chain with E22V, S33Q, S99V, T103G
B3: Ulp1 from S. cerevisiae (protein)
chain: LVPELNEKDDDQVQKALASRENTQLMNRDNIEITVRDFKTLAPRRWLNDTIIEFFMKYIEKSTPNTVAFNSFFYTNLSERGYQGVRRWMKRKKTQIDKLDKIFTPINLNQSHWALGIIDLKKKTIGYVDSLSNGPNAMSFAILTDLQKYVMEESKHTIGEDFDLIHLDCPQQPNGYDCGIYVCMNTLYGSADAPLDFDYKDAIRMRRFIAHLILTDALK
B4: bdSENP1 from B. distachyon (protein)
chain: B1 chain with E22R, S33N, S99R, T103K
B5: hsSENP2 (protein)
chain: EFPEITEEMEKEIKNVFRNGNQDEVLSEAFRLTITRKDIQTLNHLNWLNDEIINFYMNMLMERSKEKGLPSVHAFNTFFFTKLKTAGYQAVKRWTKKVDVFSVDILLVPIHLGVHWCLAVVDFRKKNITYYDSMGGINNEACRILLQYLKQESIDKKRKEFDTNGWQLFSKKSQEIPQQMNGSDCGMFACKYADCITKDRPINFTQQHMPYFRKRMVWEILHRKLL
B6: bdSENP1^MutG (protein)
chain: PFVPLTDEDEDNVRHALGGRKSSETLSVHEASHIVITREILQCLNDKEWLNDEVINLYLELLKERELREPNKFLKCHFFNTFFYKKLINGGYDYKSVRRWTTVKLGYNLIDCDKIFVPIHKDVHWCLAVINIKEKKFQYLDSLGYMDMKALRILAKYLVDEVKDKSGKQIDVHAWKQEGVQNLPLQENGWDCGMFMLKYIDFYSRDMELVFGQKHMSYFRRRTAKEILDLKAG
B7: bdSENP1^MutH (protein)
chain: PFVPLTDEDEDNVRHALGGRKPSETLSVHEASAIVITREILQCLNDKEWLNDEVINLYLELLKERELREPNKFLKCHFFNTFFYKKLINGYDYKSVREWTTMRKLGYNLIDCDKIFVPIHKDVHWCLAVINIKEKKFQYLDSLGYMDMKALRILAKYLVDEVKDKSGKQIDVHAWKQEGVQNLPLQENGWDCGMFMLKYIDFYSRDMELVFGQKHMSYFRRRTAKEILDLKAG
B8: bdSENP1^Muti (protein)
chain: B1 chain with E22K, S33H, S99E, T103R

Key:
[1] = target: bdSUMO Mut12-MBP fusion protein
[2] = target: scSUMO-MBP fusion protein
[3] = target: bdSUMO-MBP fusion protein
[4] = target: bdSUMO D67K-MBP fusion protein
[5] = target: bdSUMO Mut15-MBP fusion protein
[6] = target: bdSUMO Mut11-MBP fusion protein
[7] = target: bdSUMO Mut13-MBP fusion protein
[8] = target: hsSUMO2-MBP fusion protein
[9] = target: bdSUMO Mut10-MBP fusion protein
[10] = target: bdSUMO^Mut1-MBP fusion protein
[11] = target: bdSUMO Mut8-MBP fusion protein
[12] = target: bdSUMO Mut14-MBP fusion protein
[13] = target: scSUMO-MBP fusion protein with the bdSUMO^Mut1 exchanges
[14] = target: hsSUMO2-MBP fusion protein with the bdSUMO^Mut1 exchanges
[15] = target: scSUMO-MBP fusion protein with the bdSUMO^Mut11 exchanges
[16] = target: hsSUMO2-MBP fusion protein with the bdSUMO^Mut11 exchanges

Protein | cleavage of the SUMO fusion protein [1] | cleavage of the SUMO fusion protein [2] | cleavage of the SUMO fusion protein [3] [% cleavage] | cleavage of the SUMO fusion protein [4] | cleavage of the SUMO fusion protein [5] | cleavage of the SUMO fusion protein [6] | cleavage of the SUMO fusion protein [7] | cleavage of the SUMO fusion protein [8] | cleavage of the SUMO fusion protein [9] | cleavage of the SUMO fusion protein [10] | cleavage of the SUMO fusion protein [11] | cleavage of the SUMO fusion protein [12] | cleavage of SUMO-MBP fusion, 1 h at 25 °C (FIG. 14) [13] | protease concentration required to efficiently cleave 100 µM cognate substrate, 1 h at 0 °C [2] | cleavage of SUMO-MBP fusion, 1 h at 25 °C (FIG. 14) [14] | cleavage of SUMO-MBP fusion, 1 h at 25 °C (FIG. 14) [15] | cleavage of SUMO-MBP fusion, 1 h at 25 °C (FIG. 14) [16] | protease concentration required to efficiently cleave 100 µM cognate substrate, 1 h at 0 °C [3]
B1 | < 50 % cleavage | < 25 % cleavage | < 50 | 100 % cleavage | 100 % cleavage | 100 % cleavage | 100 % cleavage | < 50 % cleavage | 100 % cleavage | 100 % cleavage | < 50 % cleavage | < 50 % cleavage |  |  |  |  |  | 
B2 | 100 % cleavage | resistant | < 50 | 100 % cleavage | 100 % cleavage | 100 % cleavage | 100 % cleavage | resistant | 100 % cleavage | 100 % cleavage | < 75 % cleavage | 100 % cleavage |  |  |  |  |  | 
B3 | resistant | 100 % cleavage | 100 | resistant | resistant | resistant | resistant | < 25 % cleavage | resistant | resistant | resistant | resistant | allowed cleavage resistance against Ulp1, SUMOstar protease, hsSENP2 and bdSENP1 | Around 15-50 nM of these two proteases were required to efficiently cleave the cognate substrate | allowed cleavage resistance against Ulp1, SUMOstar protease, hsSENP2 and bdSENP1 | allowed cleavage resistance against Ulp1, SUMOstar protease, hsSENP2 and bdSENP1 | allowed cleavage resistance against Ulp1, SUMOstar protease, hsSENP2 and bdSENP1 | 
B4 | < 25 % cleavage | < 50 % cleavage | 100 | < 25 % cleavage | < 25 % cleavage | < 25 % cleavage | < 50 % cleavage | < 50 % cleavage | < 25 % cleavage | < 25 % cleavage | < 25 % cleavage | < 25 % cleavage | allowed cleavage resistance against Ulp1, SUMOstar protease, hsSENP2 and bdSENP1 |  | allowed cleavage resistance against Ulp1, SUMOstar protease, hsSENP2 and bdSENP1 | allowed cleavage resistance against Ulp1, SUMOstar protease, hsSENP2 and bdSENP1 | allowed cleavage resistance against Ulp1, SUMOstar protease, hsSENP2 and bdSENP1 | Around 15-50 nM of these two proteases were required to efficiently cleave the cognate substrate
B5 | resistant | 100 % cleavage | < 50 | resistant | resistant | resistant | resistant | 100 % cleavage | resistant | resistant | resistant | resistant | allowed cleavage resistance against Ulp1, SUMOstar protease, hsSENP2 and bdSENP1 |  | allowed cleavage resistance against Ulp1, SUMOstar protease, hsSENP2 and bdSENP1 | allowed cleavage resistance against Ulp1, SUMOstar protease, hsSENP2 and bdSENP1 | allowed cleavage resistance against Ulp1, SUMOstar protease, hsSENP2 and bdSENP1 | 
B6 | < 50 % cleavage | < 25 % cleavage | < 50 | < 75 % cleavage | < 75 % cleavage | < 75 % cleavage | < 75 % cleavage | 100 % cleavage | 100 % cleavage | 100 % cleavage | < 25 % cleavage | < 50 % cleavage |  |  |  |  |  | 
B7 | 100 % cleavage | resistant | < 25 | < 75 % cleavage | 100 % cleavage | 100 % cleavage | 100 % cleavage | resistant | 100 % cleavage | 100 % cleavage | < 75 % cleavage | 100 % cleavage |  |  |  |  |  | 
B8 | < 50 % cleavage | resistant | < 25 | < 25 % cleavage | < 50 % cleavage | < 50 % cleavage | < 75 % cleavage | resistant | < 50 % cleavage | 100 % cleavage | < 25 % cleavage | < 50 % cleavage |  |  |  |  |  | 

Reference: US20210261937
